# Results taken from article doi:10.1101/2025.01.09.632085.
# Biological target: thrombin (UniProt P00734;P00734 328-363;364-622)
# Assay: BLI
binder,measurement,value
GGTTGGTGTGGTTGG (structured_DNA) [HD1],Kd,0.032 ± 0.004 µM
